From patent US7572594B2, “Screening assays for agonists or antagonists or receptor activator of NF-κB” (Immunex Corporation, priority 2000, dated 2009)

Legend:
[1] = test system: mouse TRAP mRNA; test: Quantitative RT-PCR of TRAP mRNA in RAW 264.7 cells; type: cell-based; details: RANKL/LZ 200 ng/ml or TNFα 20 ng/ml, various times
[2] = test system: MMP-9 (SEQ ID NO:11)/luciferase promoter; test: MMP-9/luciferase reporter in RAW 264.7 cells; type: cell-based, murine; details: 1 μg/ml for 18 hours
Method: Additionally, RAW 264.7 cells (6×10^6 cells) were transfected with 15 μg of MMP-9 (SEQ ID NO:11)/luciferase plasmid DNA using DEAE/dextran. Two hours after transfection, cells were divided into two equal amounts and further incubated for 24 hours. Addition of 1 μg/ml of a leucine zipper form of murine RANK-L for 18 hours was sufficient to induce the MMP-9 (SEQ ID NO:11)/luciferase promoter 10-15 fold.

[3] = test system: mouse MMP-9 mRNA; test: Quantitative RT-PCR of MMP-9 mRNA in RAW 264.7 cells; type: cell-based; details: RANKL/LZ 200 ng/ml or TNFα 20 ng/ml, various times
From the text: MMP-9 mRNA is elevated greater than 350-fold by RANK-L, but is not increased by TNFα. This specificity is helpful in screening for inhibitors of RANK signal transduction.

B1: leucine zipper form of murine RANK-L: soluble leucine zipper fusion of murine RANK-L (protein)
chain: YFRAQMDPNRISEDSTHCFYRILRLHENADLQDSTLESEDTLPDSCRRMKQAFQGAVQKELQHIVGPQRFSGAPAMMEGSWLDVAQRGKPEAQPFAHLTINAASIPSGSHKVTLSSWYHDRGWAKISNMTLSNGKLRVNQDGFYYLYANICFRHHETSGSVPTDYLQLMVYVVKTSIKIPSSHNLMKGGSTKNWSGNSEFHFYSINVGGFFKLRAGEEISIQVSNPSLLDPDQDATYFGAFKVQDID
modifications: left off: a dimerising Fc or GST
TRAP mRNA elevation [1]: greater than 250 fold
induction of MMP-9/luciferase promoter [2]: 10-15 fold
MMP-9 mRNA elevation [3]: greater than 350 fold
